Assay results reported in the DeepSol protein solubility set.

Experiment: soluble on expression in E. coli; label from the status in PepcDB or PDB records

Sequence | soluble on expression in E. coli
MAESCVKPQLPRPRIPNIRVFQPTTRIPTFTYEQFNESVEILPSRPECLYRRNDPTNRSYRMKKRPPAQIYHCVQCNKHIKYPSKITEHIRKHTGEKPNVCSICNISFSQAHTLKTHMQQHAHEKPYKCSFCTAEFLNVYEKNEHEEQHMHHPNHGETMEENNATTSQFIQVAEPTIQAEPCQIYECSEMCGFQSYEEAEVVEHMTVTHYQQTKKSKEIPKLKNPGFSINFNYFQVQNGLILQDFNGEPEPIYEFYEEQYVQQVPTEIEETPTIKQQSIPYENLHFEHVEAAPGPSEPHLQVVAEGEILYDGEEIVDISNGKSLKEEIQNGDANIYGMIQDLEEEVEDIGNEDEERERVRIMVNPNPPKRGTKSLRDHHEATAATMEMIVDASILELAEPSRHLKQGYPPISKRKNTGKRAENLDWIIDAVAKGVDVSEASPHHRKKPTLHKCEYCGRVDKYPSKIRAHMRTHTGEKPFKCEICGMAFSQKTPMRLHLRRHFDQKPYECDVDGCKERFVSGAILKMHVEKKHLNKKKYVCSRGCGRVFSSAYNQKHHEKKCEQTYVTWVEGEQQSVESGEEDEESNGEYPDDDEEYMDDMIDASTSQPINRVVEHFSEEPVFLHQ | not soluble
MSNAREIRSKVQSVKNTQKITGAMELVAASKMRGAIVKMNNVRPYVESANTIIKNVTAASIDYPNPYLFDRDVKRVGYIVISTDRGLCGGLNINLFKHVLKEIKNNIEDRVGVDVCVIGSKAENFFAKLKDVNIVATAHYNDKDKEGSIRAIGGAVKVMLDKFTAGEIDRLYMSSNQFVSTIKQRPRLQTLLPIQDIFSAEEIKANKEKATKGHWDYIYERDIEEVLNALFIRYIEAQVRGAILENAACEQAARMMAMKNATDNASDIIDQLKLDYNKVRQAMITQELAEICSGAAAV | not soluble
MKKIAIIGGGIIGMTLANYLDPQKFDITVYDEGLGQATKASAGIISPWLSKRRNKKWYQLAREGAALFPKLVKDFQLTEDIYRQSGTVILRPAAALADLAHLAEERKQTAPEIGEITMLSAVQTAKFLPLLKETPSLFISGGGRLDGPAYLNHLQKRAEAKGVTFCSQRAHFRQLNQGWEIVTNSEKKSVDFLALTPGPHLKELLTTLNLSVDIRPQKGQLLVFETPFTNSQQWPVAMLDGEADLIPFNQGKILLGATHENEQAWDLEETVSAFQQLTSGTAPFLKEAEQLFKQPMHYRVGTRAYTSDFAPFFGPLPEMPHLVVASGLGSSGLTTGPFIGYQLAEYFNTGAFKGELYQKPLSQYVKNNPSL | not soluble
ESTTVKMYEALPTGPGKEVGTVVISEAPGGLHFKVNMEKLTPGYHGFHVHENPSCAPGEKDGKIVPALAAGGHYDPGNTHHHLGPEGDGHMGDLPRLSANADGKVSETVVAPHLKKLAEIKQRSLMVHVGGDNYSDKPEPLGGGGARFACGVIE | soluble
MSLRVEAQNISKTFGEVQALKDLSFVIEKGKALGLLGRNGAGKTTAIRILLGILPSDTGKVLVDNKKLSFDENAFGYLPEERGLYLKYTVKSQLMHFASLYGMKKKEALNSIEYWLEKFEISEYLNKKVETLSKGNKQKIQLIVAVMHDPEVIILDEPFSGLDPVNVELFKTVIRELLAKGKTLIFSSHRMADVEEFCDDIIMLKKGETMLQGNLDKIKEDYGIKGLVVEGEEKVQDFLKELGFEALEFKKGSYRVNLKDLEKGKELLRKITNTDLDIRGFYFERPSLNDIFIERLGEGHHHHHH | soluble
MSLNIHPMWNTYPTLSKELTTTLRLMEQAVQIDNQEIQAAVHDMIHSGGKLLRPAYQLLFSYFGEQRDPKKATALAASIELLHTATLVHDDIVDEADTRRGLPTLRSRFGNSTAVYTGDYLFVCCFKLLSDYSSSLKSIQLNSRSMEKVLTGELGQMDNRYNFEVTIDQYLKNISGKTAELFALSCFVGAYESGTSQRFAKRCGEIGENIGLAFQIIDDILDYTQTADAIGKPVLEDVRQGVYSLPLIYALEANREVLLPLLMKKEALTDEETQEIYRLVHELGGVEKAQELATHYTEKALKEISKLPETKAQAKEQLYEITQTILTREGHHHHHH | soluble
MSAVGEFPGSLGAKVFRLNGGLPGAKVGKNTGTSVKFGESSTQALIRAAYRQVFGRDLYEGQRLSVAEIQLENGDISVREFIKRLAKSELFLKLYWAPHYVCKAIEYMHRRLLGRPTYGRQEMNQYFDIASKQGFYAVVEAMIDSKEYSDAFGEDTVPYERYLEHHHHHH | soluble
